{
  "source": "IntAct's records for PubMed 16990133",
  "parents": {"B1": {"name": "Pheromone alpha factor receptor (Saccharomyces cerevisiae (Baker's yeast)), P0CI39 (parent)", "chain": "MSDAAPSLSNLFYDPTYNPGQSTINYTSIYGNGSTITFDELQGLVNSTVTQAIMFGVRCGAAALTLIVMWMTSRSRKTPIFIINQVSLFLIILHSALYFKYLLSNYSSVTYALTGFPQFISRGDVHVYGATNIIQVLLVASIETSLVFQIKVIFTGDNFKRIGLMLTSISFTLGIATVTMYFVSAVKGMIVTYNDVSATQDKYFNASTILLASSINFMSFVLVVKLILAIRSRRFLGLKQFDSFHILLIMSCQSLLVPSIIFILAYSLKPNQGTDVLTTVATLLAVLSLPLSSMWATAANNASKTNTITSDFTTSTDRFYPGTLSSFQTDSINNDAKSSLRSRLYDLYPRRKETTSDKHSERTFVSETADDIEKNQFYQLPTPTSSKNTRIGPFADASYKEGEVEPVDMYTPDTAADEEARKFWTEDNNNL", "partner": "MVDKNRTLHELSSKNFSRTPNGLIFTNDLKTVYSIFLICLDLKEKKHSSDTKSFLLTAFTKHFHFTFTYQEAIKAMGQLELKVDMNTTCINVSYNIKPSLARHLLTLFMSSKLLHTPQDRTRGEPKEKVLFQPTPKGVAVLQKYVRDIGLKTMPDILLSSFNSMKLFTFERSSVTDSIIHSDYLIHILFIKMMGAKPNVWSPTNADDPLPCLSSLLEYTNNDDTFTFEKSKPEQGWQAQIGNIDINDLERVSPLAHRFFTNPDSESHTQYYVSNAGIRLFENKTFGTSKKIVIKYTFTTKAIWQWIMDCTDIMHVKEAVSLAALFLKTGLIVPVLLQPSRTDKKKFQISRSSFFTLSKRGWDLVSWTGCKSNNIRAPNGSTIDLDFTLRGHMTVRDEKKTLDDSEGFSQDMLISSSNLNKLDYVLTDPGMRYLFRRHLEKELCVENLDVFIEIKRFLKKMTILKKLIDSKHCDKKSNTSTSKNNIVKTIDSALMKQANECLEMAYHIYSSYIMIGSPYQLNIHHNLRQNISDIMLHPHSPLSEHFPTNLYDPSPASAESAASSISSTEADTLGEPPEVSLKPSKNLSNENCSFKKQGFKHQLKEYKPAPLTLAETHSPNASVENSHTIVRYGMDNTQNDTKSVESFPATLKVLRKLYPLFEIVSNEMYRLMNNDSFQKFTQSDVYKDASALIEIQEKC"}, "B2": {"name": "Pheromone a factor receptor (Saccharomyces cerevisiae), P06783 (parent)", "chain": "MSYKSAIIGLCLLAVILLAPPLAWHSHTKNIPAIILITWLLTMNLTCIVDAAIWSDDDFLTRWDGKGWCDIVIKLQVGANIGISCAVTNIIYNLHTILKADSVLPDLSSWTKIVKDLVISLFTPVMVMGFSYLLQVFRYGIARYNGCQNLLSPTWITTVLYTMWMLIWSFVGAVYATLVLFVFYKKRKDVRDILHCTNSGLNLTRFARLLIFCFIIILVMFPFSVYTFVQDLQQVEGHYTFKNTHSSTIWNTIIKFDPGRPIYNIWLYVLMSYLVFLIFGLGSDALHMYSKFLRSIKLGFVLDMWKRFIDKNKEKRVGILLNKLSSRKESRNPFSTDSENYISTCTENYSPCVGTPISQAHFYVDYRIPDDPRKSQNKSKKYLFADKETDDILDEIDLKESRHIPYVTQGQSFDDEISLGGFSKVTLDYSEKLHNSASSNFEGESLCYSPASKEENSSSNEHSSENTAGP", "partner": "B1 partner"}, "B3": {"name": "Protein SST2 (Saccharomyces cerevisiae), P11972 (parent)", "chain": "B1 partner", "partner": "B1 chain"}, "B4": {"name": "Protein SST2 (Saccharomyces cerevisiae), P11972 (parent)", "chain": "B1 partner", "partner": "B2 chain"}},
  "data": [
    {"variants_of": "B1", "conditions": "with sst2_yeast SST2, P11972", "values": [
      {"variant": "K337R;K352R;K358R;K374R;K387R;K400R;K422R", "effect of a mutation on the interaction": "increasing interaction"}
    ]},
    {"variants_of": "B2", "conditions": "with sst2_yeast SST2, P11972", "values": [
      {"variant": "K424R;K432R;K453R", "effect of a mutation on the interaction": "increasing interaction"}
    ]},
    {"variants_of": "B3", "conditions": "with ste2_yeasx STE2, P0CI39", "values": [
      {"variant": "Q304N", "effect of a mutation on the interaction": "disrupting interaction"}
    ]},
    {"variants_of": "B3", "conditions": "with ste2_yeasx STE2, P0CI39", "remark": "another data set of the same source", "values": [
      {"variant": "Q304L", "effect of a mutation on the interaction": "disrupting interaction"},
      {"variant": "Q304E", "effect of a mutation on the interaction": "disrupting interaction"}
    ]},
    {"variants_of": "B4", "conditions": "with ste3_yeast STE3, P06783", "values": [
      {"variant": "Q304N", "effect of a mutation on the interaction": "disrupting interaction"}
    ]}
  ]
}
